Experimental data as given in patent US20220089761A1.

Target: CD20 receptor on WIL2-S cell line (human) (UniProt P11836)
Test: flow cytometry on WIL2-S cells, detection with anti-human Fc-PE

UniProt P11836, sequence (P11836 whole entry): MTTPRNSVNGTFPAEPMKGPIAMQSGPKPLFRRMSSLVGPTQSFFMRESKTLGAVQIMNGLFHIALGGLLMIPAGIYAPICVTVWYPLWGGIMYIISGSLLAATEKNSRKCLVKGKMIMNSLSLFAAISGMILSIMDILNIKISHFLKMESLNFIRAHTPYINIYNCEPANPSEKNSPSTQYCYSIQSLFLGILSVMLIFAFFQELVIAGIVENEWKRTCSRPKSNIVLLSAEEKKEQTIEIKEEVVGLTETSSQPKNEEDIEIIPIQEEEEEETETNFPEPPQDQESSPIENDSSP

## MabThera (Rituximab) (antibody)
  EC50 (read off the curve): 1 µg/mL
